Results as given in article PMC3103433 (2011).
Blank lines part the entries; values can stand above or below the substance they belong to.

How the values were obtained:
[1] = biological target: VAMP2 (UniProt P63044); experiment: GST pull-down, anti-Munc18c and anti-pTyr blots; settings: reference: Munc18c incubated without CIRK; sites Y521
[2] = biological target: Syntaxin 4 (Sx4) cytosolic domain, 1-273 (UniProt P70452); experiment: GST pull-down, anti-Munc18c and anti-pTyr blots; settings: reference: Munc18c incubated without CIRK; sites Y521
[3] = biological target: CIRK-treated Munc18c; experiment: GST pull-down, anti-Munc18c immunoblot quantification; settings: 1 μg GST fusion on glutathione-Sepharose, 1 μg Munc18c pre-treated with 370 ng CIRK for 150 min, binding buffer, overnight, 4°C, n=3, read off a plot, scale: % of control Munc18c bound to wild-type Sx4

Chain of Sx4 lacking the N-terminal 36 amino acids (N36Δ), GST fusion (P70452 whole entry, looked up, stated change not applied, the tested form may be a part): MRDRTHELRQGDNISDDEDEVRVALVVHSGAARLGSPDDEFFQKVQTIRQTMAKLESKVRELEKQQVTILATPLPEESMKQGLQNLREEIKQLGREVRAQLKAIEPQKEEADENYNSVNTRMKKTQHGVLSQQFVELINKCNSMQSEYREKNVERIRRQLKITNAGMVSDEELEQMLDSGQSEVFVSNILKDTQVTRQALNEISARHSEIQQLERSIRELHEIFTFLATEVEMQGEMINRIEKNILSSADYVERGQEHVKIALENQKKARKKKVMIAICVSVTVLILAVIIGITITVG
Chain of Sx4-GST, wild-type Syntaxin 4 cytosolic domain (residues 1-273) (P70452 whole entry L173A/E174A, looked up, the tested form may be a part): as the sequence (P70452 whole entry, looked up, stated change not applied, the tested form may be a part) above, with L173A, E174A counted along it

binding against the reference [1]: weaker
Substance: Munc18c (from UniProt Q60770) CIRK-treated Munc18c (pTyr form absent from pull-down)

other: percent decrease [2]: 30%
Substance: Munc18c (from UniProt Q60770) Munc18c pre-treated with CIRK

other: % Munc18c bound relative to wild-type Sx4 ([3]; parent: est. 9): 10
Substance: Sx4 lacking the N-terminal 36 amino acids (N36Δ), GST fusion (from UniProt P70452) L173A; E174A

other: % Munc18c bound relative to wild-type Sx4 ([3]; parent: est. 71): 64
Substance: Sx4-GST, wild-type Syntaxin 4 cytosolic domain (residues 1-273) (from UniProt P70452) L173A; E174A
